# Assay results published in the nanobody polyreactivity screen of Harvey et al. (2022).
# Experiment: yeast display, Sf9 membrane polyspecificity reagent, FACS + sequencing; frameworks hold sequencing errors
# Method in brief: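 Using colony PCR, genes from sorted yeast display clones were amplified, then sequenced on MiSeq at 2 × 250 and filtered by CDR length. The clones had been stained with 10% biotinylated, detergent-solubilized Sf9 membrane reagent for 1 hour at 4 °C and sorted by FACS into low and high (top ~1%) gates on anti-HA and streptavidin fluorescence. Polyreactivity labels come from the gate of origin.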
row,Sequence,polyreactivity (PSR sort gate)
1,QVQLVESGGGLVQAGGSLRLSCAASGRTFNAYTMGWYRQAPGKERELVAAITRSGARTYYADSVKGRFTISRDNAKNTVYLQMNSLKPEDTAVYYCNKAAFNYYLYGYWGQGTQVTVSS,high polyreactivity
2,QVQPVESRGGLVQAGGSLRLSCAASGRIFARNAQGWYRTAPGKERELVAAITYSSGRTYYADSVKGRFTISRDNAKNTVYLQMNSLKPEHTAVYYCADGKGYIGVSVSGGYGYWGPGTQVTVSS,high polyreactivity
3,QVQLVESGGGLVQTGGSLRLSCAASGRIFNGNAMGWYRQAPGKERELVAAITKSGGNTYYADSVKGRFTISRDNAKNTVYLEMNSLKQEDTAVYYCNAYYSLGAWKGAYDYWGQGTQVTVSS,low polyreactivity
4,QVQLVESGGGLVQAGGSLRLSCAASGRTFKYNAIGWYRQAPGKERELVAVISRSTGRTYYADSVKGRFTISRDNAKNTVYLQMNSLKPEDTAVYYCNRVSRQYYYQRGFEYDYWGQGTQVTVSS,high polyreactivity
5,QVQLVDSGRGFVQAGGSLRLSCAASGSTYPGNEMGRSRQAPGKESELVAAIRWSGGSTYYADSVKGRFTISRDNAKNNVYLQMNSLKPEDTAVYYCAADYLIPDTYLFQAYVGFEYWGQGTLVTVSS,low polyreactivity
6,QVQLVESGGGLVQAGGSLRLSCAASGSIFGRYAMGWYRQAPGNERELVAGICSRGTSTYYADSVKGRFTISRDNAKNTVYLQMNSLKPEDTAVYYCNAYPYYIVGSRYDYWGQGTQVTVSS,high polyreactivity
7,QVQLVESGGGLVQAGGSLRLSCAASGSTYGRNARGWYRQAPGKERELVAAISSGGRTYYADSVKGRFTISRDNAKNTVYLQMNSLKPEDTAVYYCARDDYGTLVQLYGRGFNYWGQGTQVTVSS,low polyreactivity
8,QVKLVESGGGLVQAGGSLRLSCAASGFIFGDNAMGWYRQAPGKVREFVAAINSGSRTSYADSVKGRFTISRDNAKNTVYLQMNSLKPEDTAVYYCAAESVSSGDYASRYDYWGQGTQVTVSS,low polyreactivity
9,QVQLVESWGGLVQAGGSLRLSCAASGSTFSLYTMGWYRQAPGKERELVATIDSGGSTNYADSVKGRFTISRDNAKNTVYLQMNSLKPEDTAVYYCVDYYNGYTHNYNYWGQGTQVTVSS,low polyreactivity
10,QVQRVESGGGLVQAGGSLRLSCAASGRTFVFYDMGWYRQAPGKERELVAAITSSGGRTYYADSVKGRFTISRDNAKNTVYLQMYRVKPEDTAVYYCAAPYYPYKYDSWGQGTQVTVSS,low polyreactivity
11,QVQLVESGGGLVQAGGSLRLSCAASGFTFWYNAMGWYRQAPGKERELVAAISKSGGSTYYADSVKGRFTISRDNAKNTVYLQMNILKPEDTAVYYCAARLPYNRYNYWGQGTQVTVSS,high polyreactivity
12,QVQLVESGVGLVQAGGSLRLSCAASGRIFGYYTMGWYRQAPGKERELVADSSGGNTSYADSVKGRFTISRDNAKNTVYLQMNSLKPEDTAGYYCAKDLPGAWRGDDYWGQGTQVTVSS,low polyreactivity
13,QVQIVHSGGGLVQAGGSLRLSCAASGRTIGGNAMGWYRQAPGKEWELVAAISYSDGSTYYADSVKGRFTISRDNAKNTVYLQMNSLKPEDTAVYYCAADRYAILLYAEDYWGQGTQVTVSS,low polyreactivity
14,QVQIVESGGGLVQAGVSLRLSCAASGLTIGVYAMGWYRQAPGKERELVAAISWSGGTTYYADSVKGRFTISRDNAKINFYLQMNSLKPEDTAVYYCAADYYTDVDYWGQGNQVTVSS,low polyreactivity
15,QVQLVESGGGLVQAGGSLRLSCAASGRTFKYNAMGWYRQAPGKERELVAAITSSGGRTYYADSVKGRFTISRDNAKNTVYLQMNSLKPEDTAVYYCAARGYPSDYKYEYNYWGQGTQVTVSS,high polyreactivity
16,QVQLVESGGGLVHAGGSLRLSCAASGRTFWYYAMGWYRQAPGKERELVAAITRGGRTNYADSVKGRFTISRDNAKNTVYLQMNSLKPEDTAVYYCAADYRYPAHSYGYWGQGTQVTVSS,high polyreactivity
17,QVQLVESGGGLVQAGGSLRLSCADSGSIFDDYTMGWYRQAPGKERELVAVITTGGTTYYADSVKGRFTISRDNAKNTVYLQMNSLKPEDTAVYYCAAKEANRYRRYYWGQGTQVTVSS,high polyreactivity
18,QVQLVESGGGLVQAGGRLRLSCAASGYTFGVYDMGWYRQAPGKERELVAAISGSTYYADSVKGRFTISRDNAKNTVYLQMNSLKPEDTAVYYCAAESYFFSPRTREKFDYWGQGTQVTVSS,low polyreactivity
19,QVQLVESGGGLVQAGGSLRLSCAASGSTFEFYAMGWYRQAPGKERELVAAIWRGGSTHYADSVKGRFTISRDNAKNTVYLQMNSLKPEDTAVYYCAASPYIFWRFEYWGQGTQVTVSS,low polyreactivity
20,QVQLVESGGGLVQAGGSLRLSCAASGSIFAYYAMGWYRQAPGKERELVAGIRISGGRTYYADSVKGRFTISRDNAKNTVYLQMNSLKPEDTAVYYCNARWRGFRTGAGDYWGQGTQVTVSS,high polyreactivity
21,QVQLVESGGGLVQAGGSLRLTCAASGNIFFVYDMGWYRQAPGKERELVAAISWSGGSTYADSVKGRFTISRDNAKNTVYLQMNSVKPEDTAVDYCAADVAYVEYDYWGQGTQVTVSS,low polyreactivity
22,QVQLVESGGGLVQAGGSLRLSCAASGRTFYPNAMGWSRQAPGKEREVVAAINSGGSTYYADSVKGRFTISRDKAKNTVYLQMNSLKPEDTAVYYCNAERRIAYEYWGQGTQVTVSS,low polyreactivity

row,Sequence,polyreactivity (PSR sort gate)
1,QVQLVESGGGLVQAGGTLRLSCAASGSTFRWYAMGWYRQAPGKERELVAAITSSGSTYYADSVKGRFTISRDNAKNTVYLQMNSLKPEDTAVYYCAARAKGYWNTYEHDSWGQGIQVTVSS,low polyreactivity
2,QVQLVESGGGLVQAGGSLRLSCAASGSTLTEYAMGWYRQAPGKEREFVAAISRSAGSTYYADSVKGRFTISRDNAKNTVYLQMNSLKPEETAVYYCAVAVRVGFDYFSGQADIYYYWGQGTQVTVSS,low polyreactivity
3,QVQLVESGGGLVQAGGSLRLSCAASGSIFAYYAMGWYRQAPGKERELVAAISGTGGSTNYADSVKGRFTISRDNAKNTVYLQMNSLKPEDTAVYYCAKDYSFQWRNEFNLAGEYDYWGQGTQVTVSS,low polyreactivity
4,QVQLVESGGGLVQAGGSLRLSCAASGIIFAQYVMGWYRQAPGKERQLVAAIRTSGGRTYYADSVKGRFTISRDHAKITVYLQMISLKPVDTAVYYCAAYGKPTFRSVDYWGQGTQVTVSS,high polyreactivity
5,QVQLVESGGGLVQAGGSLRLSCAASGSIFPKYAMGWYRQAPGKERELVATISYRGGRTYYADSVKGRFTISRDNAKNTVYLQMYSLKPEDTAVYYCATRYPYYPFYVGIYELDYWGQGTQVTVSS,low polyreactivity
6,QVQLVESGGGLVQAGGSLRLSCAASGSTFRYYAMGWYRQAPGKERELVATITGSGGSTYYADSVKGRFTISRDNAKNTVYLQMNSLKPEDTAVYYCAAYYSGGYDYWGQGTQVTVSS,high polyreactivity
7,QVQLVESGGGLVQAGGSLRLSCAASGFILARYAMGWYRQAPGKERELVAVISSGGSSTFYADSVKGRFTISRDNAKNTVYLQMKSLKPEDTAVYYCAARYKSSKKVGFDYWGQGTQVTVSS,high polyreactivity
8,QVQLVESGGGLVQAGGSLRLSCAASGSIFVGYAMGWYRQAPGKEREMVAAITGSGTRTYYADSVKGRFTISRDNAKNTVYLQMNSLKPEDTAVYYCAAPLSYKNVKYDYWGQGTQVTVSS,low polyreactivity
9,QVQLVESGGGLVQAGGSLRLSCAASGFTFDKYAMGWYRQAPGKERELVAAISGSGGTTYYADSVKGRFTISRDNAKNTVYLQMNSLKPEDTAVYYCATRLYSIYSYGYWGQGTQVTVSS,high polyreactivity
10,QVQLVESGGGLVQAGGSLRLSCAASGRIFYPNAMGWYRQAPGKERELVAGISRSGGSTYYADSVKGRFTISRDNAKNTVYLQMNSLKPEVTAVFYCAARYYASDRHFRGDYWGQGTQVTVSS,low polyreactivity
11,QVQLVESGGGLVQAGGSLRLSCAASGSTFDVYDMGWYRQAPGKERELVASISWDGDRTYYADSVKGRFTISRDNAKNTVYLQMNSLKPEDTAVYYCAVDSASDTIYDYWGQGTQVTVSS,low polyreactivity
12,QVQLVESGGGLVQAGGSLRLSCAASGFIFWGNTMGWYRQAPGKERELVAAISSSGGRTYYADSVKGRFTISRDNAKNTVYLQMNSLKPEDTAVYYCAKVRRSDYDSDYWGQGTQVTVSS,high polyreactivity
13,QVQLVESGGCLVQAGGSLRLSCAASGLIFRLYAMGWYRQAPGKERELVAAISVSGAITYYADSVKGRFTISRDKAKNTVYLQMNSLKPEDTAVYYCNAEAVFGRDGYVYWEVDYWGQGTQVTVSS,low polyreactivity
14,QVQLVESGGGLVQAGGSLRLSCAASGITFAVYAMGWYRQAPGKERELVAAITRGGGSTYYADSVKGRFSISRDNAKNTVYLQMNSLKPEHTAVYYCNADSIPEGNSRYSHFDYWGQGTQVTVSS,low polyreactivity
15,QVQLVESGGGLVQAGGSLRLSCAASGSTLYDYAMGWYRQAPGKERELVAAINGSGGSTYYADSVKGRFTISRDNAKNTVYLQMNSLKPEDTAVYYCAAATTHRRRYGYWGQGTQVTVSS,low polyreactivity
16,QVQLVESGGGLVQAGGSLRLSCAASGFIFGTNAMGWYRQAPGKERELVASISSTGGSTYYADSVKGRFTISRDNAKNTVYLQMNSLKPEDTAVYYCAADPYPEYIRYLPGVDYWGQGSQVTVSS,low polyreactivity
17,QVQLVESGGGLVQAGGSLRLSCASSGSTFFLNAMGWYRQAPGKEREFVAAISYTSTSTYYADSVKGRFTISRDNAKNTVYLQMNSLKPEDTAVYYCAVDAAGWYYTVETGDYAEDYWGQGTQVTVSS,low polyreactivity
18,QVQLEESVGGLVQAGGSLRLSCAASGSISYKYLMGWYRQAPGKEREFVASMTRIGGSTYYADSVKGRFTISRDNAKNTVYLQMNSLNAEDTAVYYCAADYAIGRLRRGDDYWGQGTQVTVSS,low polyreactivity
19,QVQLVESGGGLVQAGGSLRLSCAASGRTFKKYALGWYRQAPGKEREVVAAITSRVRSTSYADSVKGRFTISRDNAKNTVYLQMNSLIPEDTAVYYCAARYSVGNGYGYWGQVTQVTVSS,high polyreactivity
20,QVQLVESGGGLVQAGGSLRLSCAASGFIFSIYALGWYRQAPGKERELVAAISKSGGRTYYADSVKGRFTISRDNAKNTVYLQMNSLKPEDTAVYYCAVDSYYKYDYWGQGTQVTVSS,high polyreactivity
21,QVQLVESGGGLVQAGGSLRLSCAASGFIIRSYAMGWYRQAPGKERELLAAISSRGGSTYYADSVKGRFTISRDNANNTVYLQINSLKPEDTAVYYCAADWKSKRTDKYDSWGQGTQVTVSS,high polyreactivity
